PMC4242082, “Mechanistic determinants of the directionality and energetics of active export by a heterodimeric ABC transporter” (Nature Communications, 2014)
Where a chain is given by its changes, count along the chain named. Names and notes keep the numbering of the source. Ends that are not written are not given here.

B1: TAP (TAP1/TAP2 complex; wt TAP) (Homo sapiens) (protein)
chain 1: MASSRCPAPRGCRCLPGASLAWLGTVLLLLADWVLLRTALPRIFSLLVPTALPLLRVWAVGLSRWAVLWLGACGVLRATVGSKSENAGAQGWLAALKPLAAALGLALPGLALFRELISWGAPGSADSTRLLHWGSHPTAFVVSYAAALPAAALWHKLGSLWVPGGQGGSGNPVRRLLGCLGSETRRLSLFLVLVVLSSLGEMAIPFFTGRLTDWILQDGSADTFTRNLTLMSILTIASAVLEFVGDGIYNNTMGHVHSHLQGEVFGAVLRQETEFFQQNQTGNIMSRVTEDTSTLSDSLSENLSLFLWYLVRGLCLLGIMLWGSVSLTMVTLITLPLLFLLPKKVGKWYQLLEVQVRESLAKSSQVAIEALSAMPTVRSFANEEGEAQKFREKLQEIKTLNQKEAVAYAVNSWTTSISGMLLKVGILYIGGQLVTSGAVSSGNLVTFVLYQMQFTQAVEVLLSIYPRVQKAVGSSEKIFEYLDRTPRCPPSGLLTPLHLEGLVQFQDVSFAYPNRPDVLVLQGLTFTLRPGEVTALVGPNGSGKSTVAALLQNLYQPTGGQLLLDGKPLPQYEHRYLHRQVAAVGQEPQVFGRSLQENIAYGLTQKPTMEEITAAAVKSGAHSFISGLPQGYDTEVDEAGSQLSGGQRQAVALARALIRKPCVLILDDATSALDANSQLQVEQLLYESPERYSRSVLLITQHLSLVEQADHILFLEGGAIREGGTHQQLMEKKGCYWAMVQAPADAPE
chain 2: MRLPDLRPWTSLLLVDAALLWLLQGPLGTLLPQGLPGLWLEGTLRLGGLWGLLKLRGLLGFVGTLLLPLCLATPLTVSLRALVAGASRAPPARVASAPWSWLLVGYGAAGLSWSLWAVLSPPGAQEKEQDQVNNKVLMWRLLKLSRPDLPLLVAAFFFLVLAVLGETLIPHYSGRVIDILGGDFDPHAFASAIFFMCLFSFGSSLSAGCRGGCFTYTMSRINLRIREQLFSSLLRQDLGFFQETKTGELNSRLSSDTTLMSNWLPLNANVLLRSLVKVVGLYGFMLSISPRLTLLSLLHMPFTIAAEKVYNTRHQEVLREIQDAVARAGQVVREAVGGLQTVRSFGAEEHEVCRYKEALEQCRQLYWRRDLERALYLLVRRVLHLGVQMLMLSCGLQQMQDGELTQGSLLSFMIYQESVGSYVQTLVYIYGDMLSNVGAAEKVFSYMDRQPNLPSPGTLAPTTLQGVVKFQDVSFAYPNRPDRPVLKGLTFTLRPGEVTALVGPNGSGKSTVAALLQNLYQPTGGQVLLDEKPISQYEHCYLHSQVVSVGQEPVLFSGSVRNNIAYGLQSCEDDKVMAAAQAAHADDFIQEMEHGIYTDVGEKGSQLAAGQKQRLAIARALVRDPRVLILDEATSALDVQCEQALQDWNSRGDRTVLVIAHRLQTVQRAHQILVLQEGKLQKLAQL
notes: full-length heterodimer from Sf9 insect cells (baculovirus), purified and reconstituted in proteoliposomes, or in membranes
B2: rat TAP1-NBD Walker B mutant (D645N) (domain or fragment)
chain: SPLSGSLAPLNMKGLVKFQDVSFAYPNHPNVQVLQGLTFTLYPGKVTALVGPNGSGKSTVAALLQNLYQPTGGKVLLDGEPLVQYDHHYLHTQVAAVGQEPLLFGRSFRENIAYGLTRTPTMEEITAVAMESGAHDFISGFPQGYDTEVGETGNQLSGGQRQAVALARALIRKPRLLILDNATSALDAGNQLRVQRLLYESPEWASRTVLLITQQLSLAERAHHILFLKEGSVCEQGTHLQLMERGGCYRSMVEALAAPSD
notes: Model system for NBD homodimerisation; also called Walker B D645N; hydrolysis-deficient Walker B mutant; source: E. coli BL21(DE3), purified (Ni-NTA, Superdex200)
B3: rat TAP1-NBD Walker B/D-loop double mutant (D645N/D651A) (domain or fragment)
chain: B2 chain with D187A
notes: D651A of rat TAP1 is equivalent to D674A of human TAP1; also called Walker B D645N/D-loop D651A; rat TAP1 NBD D645N/D651A; source: E. coli BL21(DE3), purified (Ni-NTA, Superdex200)

Legend:
[1] = molecular target: D674A/wt TAP complex (human TAP1 D674A with wt TAP2) (human) (UniProt Q03519)
[2] = molecular target: wild-type TAP (human TAP1/TAP2 complex) (human) (UniProt Q03518)
[3] = substrate: Nc1ncnc2c1ncn2[C@@H]1O[C@H](COP(=O)(O)OP(=O)(O)OP(=O)(O)O)[C@@H](O)[C@H]1O; assay: ATP-dependent transport of RRYC(FL488)KSTEL in proteoliposomes; format: biochemical, Homo sapiens; details: peptide 1 μM, Mg2+, pH 7.4, 37 °C
Text: ATP-dependent transport of RRYC(FL488)KSTEL in proteoliposomes on TAP (TAP1/TAP2 complex; wt TAP) | the Michaelis–Menten kinetics for peptide transport by wt TAP and D674A/wt are equal

[4] = molecular target: the molecule itself; assay: AUC; sedimentation velocity, with ATP; 33 μM protein, 40,000 r.p.m., 10 °C, 14 h; 20 mM Tris pH 8.0, 50 mM NaCl, 5 mM MgCl2; c(S) model (Sedfit)
P36370 [5] = assay: AUC; sedimentation velocity, with ADP; 33 μM protein, 40,000 r.p.m., 10 °C, 14 h; 20 mM Tris pH 8.0, 50 mM NaCl, 5 mM MgCl2; c(S) model (Sedfit)
P36370 [6] = assay: AUC; sedimentation velocity, with ATP; 33 μM protein, 40,000 r.p.m., 10 °C, 14 h; 20 mM Tris pH 8.0, 50 mM NaCl, 5 mM MgCl2; c(S) model (Sedfit)
[7] = molecular target: the molecule itself; assay: AUC; sedimentation equilibrium, with ADP; 12,000, 15,000 and 22,000 r.p.m., 10 °C; 3, 11 and 33 μM protein; 20 mM Tris pH 8.0, 50 mM NaCl, 5 mM MgCl2; monomer-dimer self-association model (SedPhat); dimer to monomers
[8] = molecular target: the molecule itself; assay: AUC; sedimentation equilibrium, with ATP; 12,000, 15,000 and 22,000 r.p.m., 10 °C; 3, 11 and 33 μM protein; 20 mM Tris pH 8.0, 50 mM NaCl, 5 mM MgCl2; monomer-dimer self-association model (SedPhat); dimer to monomers

Binder	EC50 of lumenal peptide accumulation in proteoliposomes after 1 h at different external peptide concentrations, given as Kd of a low-affinity lumenal peptide-binding site [1] [µM]	lumenal peptide concentration reached in proteoliposomes at high external peptide (for example 100 μM): trans-inhibition [1] [µM]	lumenal peptide concentration reached in proteoliposomes at high external peptide (for example 100 μM): trans-inhibition [2] [µM]	Km [3] [µM]	stoichiometry N [4]	2nd/1st ratio (dimer to monomer peaks) (P36370 [5])	2nd/1st ratio (dimer to monomer peaks) (P36370 [6])	Kd [7] [µM]	Kd [8] [µM]
RRYC(Atto633)KSTEL [Atto633-labelled peptide RRYC(AT633)KSTEL]	10.7	< 16	< 16						
B1				99 ± 24					
B2					2	0.68	2.61	111	22.4
B3						0.26	0.11	164	170
